According to patent US20200087373A1 (UNIVERSITY OF COPENHAGEN, published 2020):
Ends that are not written are not given here. * marks the point of attachment. C16 diacid = O=C(O)CCCCCCCCCCCCCCC(=O)*

T1: human GIP receptor (human, UniProt P48546 22-466)
T1 sequence (looked up): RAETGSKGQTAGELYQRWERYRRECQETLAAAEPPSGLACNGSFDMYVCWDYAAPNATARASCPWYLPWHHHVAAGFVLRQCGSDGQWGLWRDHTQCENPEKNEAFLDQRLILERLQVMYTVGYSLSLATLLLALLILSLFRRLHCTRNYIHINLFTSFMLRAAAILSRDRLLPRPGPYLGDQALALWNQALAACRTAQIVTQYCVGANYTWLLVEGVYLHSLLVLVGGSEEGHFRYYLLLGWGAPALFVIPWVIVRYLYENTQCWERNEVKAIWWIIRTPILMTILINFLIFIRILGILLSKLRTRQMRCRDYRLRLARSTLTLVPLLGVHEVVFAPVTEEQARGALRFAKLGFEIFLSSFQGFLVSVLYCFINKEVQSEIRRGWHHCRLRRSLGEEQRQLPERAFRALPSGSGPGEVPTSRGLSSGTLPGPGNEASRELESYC

B1: AT301 [hGIP(3-30)NH2[Y10K]-C16diacid/10] (peptide)
peptide: EGTFISDK(C16 diacid)SIAMDKIHQQDFVNWLLAQK-NH2
modifications: N-terminus assumed
SMILES: CC[C@H](C)[C@H](NC(=O)[C@H](CO)NC(=O)[C@H](CCCCNC(=O)CCCCCCCCCCCCCCC(=O)O)NC(=O)[C@H](CC(=O)O)NC(=O)[C@H](CO)NC(=O)[C@@H](NC(=O)[C@H](Cc1ccccc1)NC(=O)[C@@H](NC(=O)CNC(=O)[C@@H](N)CCC(=O)O)[C@@H](C)O)[C@@H](C)CC)C(=O)N[C@@H](C)C(=O)N[C@@H](CCSC)C(=O)N[C@@H](CC(=O)O)C(=O)N[C@@H](CCCCN)C(=O)N[C@H](C(=O)N[C@@H](Cc1c[nH]cn1)C(=O)N[C@@H](CCC(N)=O)C(=O)N[C@@H](CCC(N)=O)C(=O)N[C@@H](CC(=O)O)C(=O)N[C@@H](Cc1ccccc1)C(=O)N[C@H](C(=O)N[C@@H](CC(N)=O)C(=O)N[C@@H](Cc1c[nH]c2ccccc12)C(=O)N[C@@H](CC(C)C)C(=O)N[C@@H](CC(C)C)C(=O)N[C@@H](C)C(=O)N[C@@H](CCC(N)=O)C(=O)N[C@@H](CCCCN)C(N)=O)C(C)C)[C@@H](C)CC
B2: AT299 [hGIP(3-30)NH2[S8K]-C16diacid/8] (peptide)
peptide: EGTFIK(C16 diacid)DYSIAMDKIHQQDFVNWLLAQK-NH2
modifications: N-terminus assumed
SMILES: CC[C@H](C)[C@H](NC(=O)[C@H](CO)NC(=O)[C@H](Cc1ccc(O)cc1)NC(=O)[C@H](CC(=O)O)NC(=O)[C@H](CCCCNC(=O)CCCCCCCCCCCCCCC(=O)O)NC(=O)[C@@H](NC(=O)[C@H](Cc1ccccc1)NC(=O)[C@@H](NC(=O)CNC(=O)[C@@H](N)CCC(=O)O)[C@@H](C)O)[C@@H](C)CC)C(=O)N[C@@H](C)C(=O)N[C@@H](CCSC)C(=O)N[C@@H](CC(=O)O)C(=O)N[C@@H](CCCCN)C(=O)N[C@H](C(=O)N[C@@H](Cc1c[nH]cn1)C(=O)N[C@@H](CCC(N)=O)C(=O)N[C@@H](CCC(N)=O)C(=O)N[C@@H](CC(=O)O)C(=O)N[C@@H](Cc1ccccc1)C(=O)N[C@H](C(=O)N[C@@H](CC(N)=O)C(=O)N[C@@H](Cc1c[nH]c2ccccc12)C(=O)N[C@@H](CC(C)C)C(=O)N[C@@H](CC(C)C)C(=O)N[C@@H](C)C(=O)N[C@@H](CCC(N)=O)C(=O)N[C@@H](CCCCN)C(N)=O)C(C)C)[C@@H](C)CC
B3: AT300 [hGIP(3-30)NH2[D9K]-C16diacid/9] (peptide)
peptide: EGTFISK(C16 diacid)YSIAMDKIHQQDFVNWLLAQK-NH2
modifications: N-terminus assumed
SMILES: CC[C@H](C)[C@H](NC(=O)[C@H](CO)NC(=O)[C@H](Cc1ccc(O)cc1)NC(=O)[C@H](CCCCNC(=O)CCCCCCCCCCCCCCC(=O)O)NC(=O)[C@H](CO)NC(=O)[C@@H](NC(=O)[C@H](Cc1ccccc1)NC(=O)[C@@H](NC(=O)CNC(=O)[C@@H](N)CCC(=O)O)[C@@H](C)O)[C@@H](C)CC)C(=O)N[C@@H](C)C(=O)N[C@@H](CCSC)C(=O)N[C@@H](CC(=O)O)C(=O)N[C@@H](CCCCN)C(=O)N[C@H](C(=O)N[C@@H](Cc1c[nH]cn1)C(=O)N[C@@H](CCC(N)=O)C(=O)N[C@@H](CCC(N)=O)C(=O)N[C@@H](CC(=O)O)C(=O)N[C@@H](Cc1ccccc1)C(=O)N[C@H](C(=O)N[C@@H](CC(N)=O)C(=O)N[C@@H](Cc1c[nH]c2ccccc12)C(=O)N[C@@H](CC(C)C)C(=O)N[C@@H](CC(C)C)C(=O)N[C@@H](C)C(=O)N[C@@H](CCC(N)=O)C(=O)N[C@@H](CCCCN)C(N)=O)C(C)C)[C@@H](C)CC

Target: T1, human GIP receptor
Assay: cell-based or functional assay

| Binder | cAMP agonism, EC50 (log) | cAMP agonism, Emax | cAMP agonism, nM (EC50) | cAMP antagonism, log (IC50) | cAMP antagonism, nM (IC50) |
| --- | --- | --- | --- | --- | --- |
| B1 | -7.9 log M | 8.5% | 12 nM | -6.8 log M | 163 nM |
| B2 | -7.8 log M | 15.2% | 15 nM | -6.7 log M | 199 nM |
| B3 |  |  |  | -7.7 log M | 22 nM |
